In assay [1] the target is dockerin D37 (group 3) of R. flavefaciens FD-1 (Ruminococcus flavefaciens FD-1). Put plainly: ITC; 10-uL aliquots of 80-180 uM cohesin injected into 20-30 uM thioredoxin-fused dockerin; 308.16 K; 50 mM Na-HEPES pH 7.5, 2 mM CaCl2, 0.5 mM TCEP; single-site model.
Assay [2] has as its target dockerin D61 (group 6) of R. flavefaciens FD-1 (Ruminococcus flavefaciens FD-1). Described as above.
Assay [3] deals with group-6 dockerin D61, thioredoxin-fused (pETG-20A) (Ruminococcus flavefaciens FD-1). Put plainly: ITC; thioredoxin-fused dockerin (20-30 uM) in the cell, cohesin (80-180 uM) injected; 308.16 K; 50 mM Na-HEPES pH 7.5, 2 mM CaCl2, 0.5 mM TCEP; single-site model.
The target in assay [4] is group-3 dockerin D37, thioredoxin-fused (pETG-20A) (Ruminococcus flavefaciens FD-1). Described as above.
Assay [5] concerns the target ScaH dockerin D49, thioredoxin-fused (pETG-20A) (Ruminococcus flavefaciens FD-1). The assay is described as above.
The target of assay [6] is group-2 dockerin D35 (ZP_06143271), thioredoxin-fused (pETG-20A) (Ruminococcus flavefaciens FD-1). The assay is described as above.
Assay [7] deals with ScaE cohesin of R. flavefaciens FD-1. As to the kind of experiment: ELISA. The settings on record: read off a plot.

ScaH dockerin D49, thioredoxin-fused (pETG-20A) (Ruminococcus flavefaciens FD-1), sequence (main, as listed by the source): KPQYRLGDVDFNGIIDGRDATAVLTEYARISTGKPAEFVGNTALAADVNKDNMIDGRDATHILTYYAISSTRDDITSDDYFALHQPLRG

In assay [1], “ScaC cohesin of R. flavefaciens FD-1 (domain or fragment)” came in with a Ka of 1e+08 M⁻¹ and a stoichiometry N of 1. In assay [2], the Ka is 1e+08 M⁻¹ and the stoichiometry N is 1.
For “ScaC cohesin, His-tagged (pET21a) (domain or fragment)”, the Ka worked out at 3.54e+08 M⁻¹ in assay [3] and 2.69e+08 M⁻¹ in assay [4].
Turning to “ScaE cohesin, His-tagged (pET21a) (domain or fragment)”, the Ka in assay [5] stood at 1.56e+06 M⁻¹; in assay [6], 6.17e+07 M⁻¹.
Turning to “dockerin of ScaH, ZP_06142361 (Coh-Doc) G11A; R12A”, the other: pEC50 in assay [7] (parent: est. 10.2) was 10.
For the substance “dockerin of ScaH, ZP_06142361 (Coh-Doc) G11A; R12A; G50A; R51A”, in assay [7] (parent: est. 10.2), the other: pEC50 was found to be 9.1.
The same measure, in the same setting: the same measure for “dockerin of ScaH, ZP_06142361 (Coh-Doc) G50A; R51A”: 9.9.
Turning to “dockerin of the peptidase ZP_06142181 (Peptidase-UNK-Doc) G11A; R12A”, the other: pEC50 in assay [7] (parent: est. 8.6) was determined as 8.6.
For “dockerin of the peptidase ZP_06142181 (Peptidase-UNK-Doc) G11A; R12A; G50A; R51A”, the other: pEC50 in assay [7] (parent: est. 8.6) was found to be 7.6.
Take “dockerin of the peptidase ZP_06142181 (Peptidase-UNK-Doc) G50A; R51A”: the other: pEC50 in assay [7] (parent: est. 8.6) was determined as 8.2.
